This data set concerns the molecule itself. Description: SEC; Hiload 16/600 Superdex 200 pg, 25 mM Tris-HCl pH 7.5, 100 mM NaCl, run without LMNG and with 0.01% LMNG; elution volumes compared with gel filtration standards.

B1: Lipo-YcjN (diacylated lipoprotein form of E. coli YcjN, from the construct SP-YcjN-10H) (natural protein, E. coli K-12, UniProt P76042 21-430, looked up)
chain: CKEENKTNVSIEFMHSSVEQERQAVISKLIARFEKENPGITVKQVPVEEDAYNTKVITLSRSGSLPEVIETSHDYAKVMDKEQLIDRKAVATVISNVGEGAFYDGVLRIVRTEDGSAWTGVPVSAWIGGIWYRKDVLAKAGLEEPKNWQQLLDVAQKLNDPANKKYGIALPTAESVLTEQSFSQFALSNQANVFNAEGKITLDTPEMMQALTYYRDLTANTMPGSNDIMEVKDAFMNGTAPMAIYSTYILPAVIKEGDPKNVGFVVPTEKNSAVYGMLTSLTITAGQKTEETEAAEKFVTFMEQADNIADWVMMSPGAALPVNKAVVTTATWKDNDVIKALGELPNQLIGELPNIQVFGAVGDKNFTRMGDVTGSGVVSSMVHNVTVGKADLSTTLQASQKKLDELIEQH
modifications: diacylated at cysteine 21 (S-diacylglyceryl-cysteine, the new N terminus), acyl chain compositions [16:0, 16:0] and [16:0, 18:1]
notes: YcjN, E. coli K-12, expressed with its native N-terminal signal peptide; by intact mass the purified protein is the processed lipoprotein that begins at the diacylated cysteine 21; Expressed as the full-length precursor (SP-YcjN-10H); LC-MS masses of 46,699 and 46,726 Da fit the protein cut before C21 and diacylated; No tag removal is described; also called lipidated YcjN
Regarding B1, the binding result was “binds”.

The record behind these values is article PMC11543891, “Expression, purification, and characterization of diacylated Lipo-YcjN from Escherichia coli” (The Journal of Biological Chemistry, 2024).
